Measured values reported in patent US20240182536A1 (MURAL ONCOLOGY, published 2024).

T1: interleukin 18 binding protein (IL-18BP) (UniProt O95998 31-194)
T1 sequence (looked up): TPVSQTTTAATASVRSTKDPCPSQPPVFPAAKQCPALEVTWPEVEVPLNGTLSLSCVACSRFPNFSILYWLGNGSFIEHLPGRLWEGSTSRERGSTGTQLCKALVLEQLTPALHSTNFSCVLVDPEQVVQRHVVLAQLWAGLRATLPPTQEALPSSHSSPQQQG

T2: IL-18 receptors on HEK-Blue IL-18 reporter cells (UniProt Q13478 19-541; O95256 20-599, limits assumed)
T2 sequence (looked up) 1: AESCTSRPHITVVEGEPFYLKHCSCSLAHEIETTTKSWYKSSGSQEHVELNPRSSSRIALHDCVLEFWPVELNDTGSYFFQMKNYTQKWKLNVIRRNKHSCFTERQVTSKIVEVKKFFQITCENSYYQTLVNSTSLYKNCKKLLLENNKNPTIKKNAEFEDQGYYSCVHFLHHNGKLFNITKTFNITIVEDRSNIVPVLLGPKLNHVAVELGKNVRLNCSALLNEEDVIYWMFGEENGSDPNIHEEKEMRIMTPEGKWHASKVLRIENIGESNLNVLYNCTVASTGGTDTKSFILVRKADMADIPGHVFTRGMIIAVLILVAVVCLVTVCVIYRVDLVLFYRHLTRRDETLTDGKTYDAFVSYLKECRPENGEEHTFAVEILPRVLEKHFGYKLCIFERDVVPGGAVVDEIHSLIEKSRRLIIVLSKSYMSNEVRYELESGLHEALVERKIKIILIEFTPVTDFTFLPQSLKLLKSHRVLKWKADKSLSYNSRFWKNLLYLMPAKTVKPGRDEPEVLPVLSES
T2 sequence (looked up) 2: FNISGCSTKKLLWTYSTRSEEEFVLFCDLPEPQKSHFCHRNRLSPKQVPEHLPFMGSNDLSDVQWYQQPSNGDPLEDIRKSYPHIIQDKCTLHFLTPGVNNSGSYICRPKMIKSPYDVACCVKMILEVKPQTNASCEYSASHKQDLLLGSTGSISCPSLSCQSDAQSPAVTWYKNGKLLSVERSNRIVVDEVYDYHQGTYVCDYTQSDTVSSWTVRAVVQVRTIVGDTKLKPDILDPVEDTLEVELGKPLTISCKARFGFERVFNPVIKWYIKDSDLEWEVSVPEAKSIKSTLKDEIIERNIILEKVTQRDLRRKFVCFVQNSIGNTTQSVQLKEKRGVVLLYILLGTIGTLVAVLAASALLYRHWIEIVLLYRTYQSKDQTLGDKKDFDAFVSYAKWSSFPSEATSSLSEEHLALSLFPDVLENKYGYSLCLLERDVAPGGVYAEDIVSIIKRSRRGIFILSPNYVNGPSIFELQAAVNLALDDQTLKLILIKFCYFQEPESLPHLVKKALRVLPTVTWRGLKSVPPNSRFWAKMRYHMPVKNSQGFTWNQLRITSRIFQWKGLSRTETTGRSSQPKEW

B1: IL-18 variant K53N, S55A, R104N, P107A, H109Y (ligand)
chain: YFGKLESKLSVIRNLNDQVLFIDQGNRPLFEDMTDSDMRDNAPRTIFIISMYNDAQPRGMAVTISVKSEKISTLSSENKIISFKEMNPPDNIKDTKSDIIFFQNSVAGYDNKMQFESSSYEGYFLASEKERDLFKLILKKEDELGDRSIMFTVQNED
B2: IL-18 variant K53H, S55I (ligand)
chain: YFGKLESKLSVIRNLNDQVLFIDQGNRPLFEDMTDSDMRDNAPRTIFIISMYHDIQPRGMAVTISVKSEKISTLSSENKIISFKEMNPPDNIKDTKSDIIFFQRSVPGHDNKMQFESSSYEGYFLASEKERDLFKLILKKEDELGDRSIMFTVQNED
B3: IL-18 variant K53H, S55M, Q56H (ligand)
chain: YFGKLESKLSVIRNLNDQVLFIDQGNRPLFEDMTDSDMRDNAPRTIFIISMYHDMHPRGMAVTISVKSEKISTLSSENKIISFKEMNPPDNIKDTKSDIIFFQRSVPGHDNKMQFESSSYEGYFLASEKERDLFKLILKKEDELGDRSIMFTVQNED
B4: IL-18 variant K53V, S55Q (ligand)
chain: YFGKLESKLSVIRNLNDQVLFIDQGNRPLFEDMTDSDMRDNAPRTIFIISMYVDQQPRGMAVTISVKSEKISTLSSENKIISFKEMNPPDNIKDTKSDIIFFQRSVPGHDNKMQFESSSYEGYFLASEKERDLFKLILKKEDELGDRSIMFTVQNED
B5: IL-18 variant K53S, S55Y, P107M (ligand)
chain: YFGKLESKLSVIRNLNDQVLFIDQGNRPLFEDMTDSDMRDNAPRTIFIISMYSDYQPRGMAVTISVKSEKISTLSSENKIISFKEMNPPDNIKDTKSDIIFFQRSVMGHDNKMQFESSSYEGYFLASEKERDLFKLILKKEDELGDRSIMFTVQNED
B6: IL-18 variant K53N, S55Y (ligand)
chain: YFGKLESKLSVIRNLNDQVLFIDQGNRPLFEDMTDSDMRDNAPRTIFIISMYNDYQPRGMAVTISVKSEKISTLSSENKIISFKEMNPPDNIKDTKSDIIFFQRSVPGHDNKMQFESSSYEGYFLASEKERDLFKLILKKEDELGDRSIMFTVQNED
B7: IL-18 variant S36E, D37E, D40R, N41G, K53Y, S55F (ligand)
chain: YFGKLESKLSVIRNLNDQVLFIDQGNRPLFEDMTDEEMRRGAPRTIFIISMYYDFQPRGMAVTISVKSEKISTLSSENKIISFKEMNPPDNIKDTKSDIIFFQRSVPGHDNKMQFESSSYEGYFLASEKERDLFKLILKKEDELGDRSIMFTVQNED
B8: IL-18 variant L9V, K53H, S55M (ligand)
chain: YFGKLESKVSVIRNLNDQVLFIDQGNRPLFEDMTDSDMRDNAPRTIFIISMYHDMQPRGMAVTISVKSEKISTLSSENKIISFKEMNPPDNIKDTKSDIIFFQRSVPGHDNKMQFESSSYEGYFLASEKERDLFKLILKKEDELGDRSIMFTVQNED
B9: IL-18 variant K53H, S55H (ligand)
chain: YFGKLESKLSVIRNLNDQVLFIDQGNRPLFEDMTDSDMRDNAPRTIFIISMYHDHQPRGMAVTISVKSEKISTLSSENKIISFKEMNPPDNIKDTKSDIIFFQRSVPGHDNKMQFESSSYEGYFLASEKERDLFKLILKKEDELGDRSIMFTVQNED
B10: IL-18 variant K53Y, S55V (ligand)
chain: YFGKLESKLSVIRNLNDQVLFIDQGNRPLFEDMTDSDMRDNAPRTIFIISMYYDVQPRGMAVTISVKSEKISTLSSENKIISFKEMNPPDNIKDTKSDIIFFQRSVPGHDNKMQFESSSYEGYFLASEKERDLFKLILKKEDELGDRSIMFTVQNED
B11: IL-18 variant K53D, S55Q, P107M (ligand)
chain: YFGKLESKLSVIRNLNDQVLFIDQGNRPLFEDMTDSDMRDNAPRTIFIISMYDDQQPRGMAVTISVKSEKISTLSSENKIISFKEMNPPDNIKDTKSDIIFFQRSVMGHDNKMQFESSSYEGYFLASEKERDLFKLILKKEDELGDRSIMFTVQNED
B12: IL-18 variant K53Y, S55Y, Q56H (ligand)
chain: YFGKLESKLSVIRNLNDQVLFIDQGNRPLFEDMTDSDMRDNAPRTIFIISMYYDYHPRGMAVTISVKSEKISTLSSENKIISFKEMNPPDNIKDTKSDIIFFQRSVPGHDNKMQFESSSYEGYFLASEKERDLFKLILKKEDELGDRSIMFTVQNED

What was measured:
[1] = target: T1, interleukin 18 binding protein (IL-18BP); experiment: cell-based or functional assay
[2] = target: T2, IL-18 receptors on HEK-Blue IL-18 …; experiment: cell-based or functional assay

Binder | HEK-Blue activity, +100 nM BP, DF-10000 [1] | HEK-Blue activity, +100 nM BP, DF-100,000 [1] | HEK-Blue activity, +100 nM BP, DF-1,000,000 [1] | Ratio (-BP/+BP), DF-10000 [1] | Ratio (-BP/+BP), DF-100,000 [1] | Ratio (-BP/+BP), DF-1,000,000 [1] | HEK-Blue activity, No BP, DF-10000 [2] | HEK-Blue activity, No BP, DF-100,000 [2] | HEK-Blue activity, No BP, DF-1,000,000 [2]
B1 | 0.13 | 0.12 | 0.14 | 1.64 | 1.1 | 0.93 | 0.21 | 0.13 | 0.13
B2 | 0.16 | 0.11 | 0.1 | 0.92 | 0.9 | 0.89 | 0.14 | 0.1 | 0.09
B3 | 0.15 | 0.1 | 0.09 | 0.97 | 0.96 | 0.92 | 0.14 | 0.09 | 0.08
B4 | 0.2 | 0.17 | 0.13 | 1 | 0.81 | 0.88 | 0.2 | 0.14 | 0.11
B5 | 0.19 | 0.14 | 0.18 | 0.82 | 0.76 | 0.69 | 0.15 | 0.11 | 0.12
B6 | 0.14 | 0.09 | 0.09 | 1.11 | 1.02 | 0.96 | 0.16 | 0.09 | 0.08
B7 | 0.16 | 0.19 | 0.14 | 1.19 | 0.64 | 1.06 | 0.2 | 0.12 | 0.14
B8 | 0.16 | 0.1 | 0.14 | 0.94 | 1.01 | 0.78 | 0.15 | 0.1 | 0.11
B9 | 0.15 | 0.1 | 0.09 | 1.01 | 0.99 | 0.96 | 0.15 | 0.1 | 0.08
B10 | 0.16 | 0.14 | 0.13 | 1.03 | 1.44 | 1.27 | 0.16 | 0.2 | 0.16
B11 | 0.22 | 0.14 | 0.13 | 0.85 | 0.97 | 1.02 | 0.19 | 0.13 | 0.13
B12 | 0.22 | 0.2 | 0.19 | 0.73 | 0.76 | 0.73 | 0.16 | 0.15 | 0.14
